Reference: patent US20210093714A1, “Combination and method for inhibiting the cancer cells” (NATIONAL TAIWAN UNIVERSITY, priority 2013, published 2021)

Key:
[1] = system: lung adenocarcinoma cell line, CL1-5; assay: Anoikis assay (DNA fragmentation); format: cell-based, human; details: FIG. 5A
Source text: This embodiment focuses on whether CCN2 can induce anoikis in lung adenocarcinoma cells in vitro and in vivo. At first, CCN2 induces anoikis which is induced by CCN2 in lung adenocarcinoma cells in vitro was observed by anoikis assay, the results shown in FIGS. 5A to 5C.

[2] = system: lung adenocarcinoma cell line, CL1-0/siCCN2; assay: Anoikis assay with DAPK siRNA; format: cell-based, human; details: CL1-0/siCCN2 in suspension, DAPK expression decreased due to siRNA; 24 h; FIG. 6C
[3] = system: lung adenocarcinoma cell line, CL1-5; assay: In vivo metastasis of i.v. injected CL1-5, celltracker probe; details: nude mice, i.v. CL1-5; CCN2 1 mg/kg per day; FIG. 5G
Source text: Mice were anesthetized with isoflurane inhalation, and biofluorescence images were photographed with a CCD camera (IVIS; Xenogen Corporation, Caliper Life Sciences, Hopkinton, Mass., USA) at specific times. Imaging times ranged from 1 to 60 s, depending on the amount of fluorescence activity. Biofluorescence from the region of interest (ROI) was defined manually, and the data were expressed as photon flux (photons/s/cm^2/steradian). Background photon flux was defined using an ROI from a mouse that was not given an […]. injection of cancer cells. All biofluorescence data were collected and analyzed using IVIS. Celltracker dye was purchased from Molecular Probes, Invitrogen Corporation.
Cells were washed and resuspended in PBS. […] The mice were injected i.v. with cells so that we could measure the metastatic potential and perform biofluorescence imaging. The mice were killed after 8 weeks, and all of their organs were examined for metastasis formation. The lungs were removed and fixed in 10% formalin fixative. The number of lung-tumor colonies was counted under a dissecting microscope. […]

[4] = system: mutated-type EGFR (L858R); assay: Western blot of EGFR expression, H1299 mutated-type EGFR; format: cell-based, human; details: H1299 (single mutation point, L858R); 0 minutes to 4 hours; FIG. 7
Protocol: (§1) Proteins ([…]) were separated by SDS-PAGE and transferred to a polyvinylidene difluoride membrane (Immobilon-P membrane; Millipore) by electrotransfer. The blot was blocked in a solution of 5% skim milk and 0.1% Tween 20 in PBS. Thereafter, membrane-bound proteins were probed with the following primary antibodies: CCN2, DAPK, phosphorylated ERK, ERK-1, phosphorylated Akt, Akt, TrkA, phosphorylated-Src, Src, b-actin, a-tubulin (Santa Cruz Biotechnology), p-EGFR, and EGFR (Cell Signaling Technology, Danvers, MA, USA). The membrane was washed and then incubated with HRP-conjugated secondary antibodies for 30 min. Enhanced chemiluminescence reagents (Amersham Pharmacia Biotech, Piscataway, N.J., USA) were employed to depict the protein bands on membranes. The light was captured on Kodak X-Omat Blue autoradiography film (PerkinElmer Life Sciences, Boston, Mass., USA).
First, the effect of rCCN2 on the wild-type EGFR […] lung adenocarcinoma cell line, the mutated-type EGFR H1299 lung adenocarcinoma cell line, and the mutated-type EGFR H1975 lung adenocarcinoma cell line was observed by western blot analysis, the results shown in FIG. 7(Cell lysates of H1299 transfectants or H1975 cells were immunoblotted with anti-EGFR).

DAPK = assay: Western blot of DAPK expression; format: cell-based, human
Protocol: as §1
This embodiment focuses on the downstream signaling in CCN2-induced anoikis. At first, the effect of DAPK which can up-regulate CCN2 played on CCN2 induced anoikis and metastasis inhibition of lung adenocarcinoma cell lineswas observed by RT-PCR, dual luciferase reporter assay and western blot analysis, the results shown in FIGS. 6A to 6C. […] In addition, in the lung adenocarcinoma cell line, CL1-0/siCCN2, DAPK expression is suppressed, and DAPK expression also be suppressed with increasing dose (0 μg, 1μg, 3μg), (as shown on the top right in the FIG. 6C). Therefore, CCN2 induced DAPK expression in time- and dose-dependent manners.

EGFR/c-Cbl complex = molecular target: T1, EGFR/c-Cbl complex (Homo sapiens, UniProt P00533); assay: Immunoprecipitation/western blot of EGFR/c-Cbl complex formation; format: cell-based; details: CL1-5 with MG132; 0 to 60 minutes; FIG. 4D
T1 construct: expressed in transfected cells; host or cells: CL1-5 (EGFR endogenous; HA-c-Cbl transiently transfected)
Protocol: as §1
CCN2 transfectants were seeded overnight and incubated in serum-free media for 24 h. For immunoprecipitations, cells were lysed in an RIPA buffer (150 mM NaCl, 50 mM Tris-base, 5 mM EDTA, 1% NP-40, and 0.25% deoxycholate; pH 7.4). Protein concentrations were determined using the BCA protein assay kit (Pierce, Rockford, Ill., USA). […]

c-Src = assay: Western blot of c-Src autophosphorylation; format: cell-based, human; details: CL1-5; 0 to 60 minutes; FIG. 3E
Protocol: as §1
Next, the effect of CCN2 on the formation of EGFR/Src complex and the phosphorylation of Src in the lung adenocarcinoma cell lines, CL1-5, A549 and CL1-0/siCCN2, was observed by western blot analysis, the results shown in FIGS. 3C to 3E.

EGFR = assay: Western blot of EGFR expression in PC9/WT and PC9/IR; format: cell-based; details: 100 ng/mL rCCN2, 0 to 12 hours, FIG. 8C
Protocol: as §1

B1: Connective tissue growth factor (CCN2), wild-type full length (ligand, human, UniProt P29279 27-349, looked up)
chain: QNCSGPCRCPDEPAPRCPAGVSLVLDGCGCCRVCAKQLGELCTERDPCDPHKGLFCHFGSPANRKIGVCTAKDGAPCIFGGTVYRSGESFQSSCKYQCTCLDGAVGCMPLCSMDVRLPSPDCPFPRRVKLPGKCCEEWVCDEPKDQTVVGPALAAYRLEDTFGPDPTMIRANCLVQTTEWSACSKTCGMGISTRVTNDNASCRLEKQSRLCMVRPCEADLEENIKKGKKCIRTPKISKPIKFELSGCTSMKTYRAKFCGVCTDGRCCTPHRTTTLPVEFKCPDGEVMKKNMMFIKTCACHYNCPGDNDIFESLYYRKMYGDMA
notes: also called Recombinant CCN2; exogenous CCN2
In the case of B1, the DNA fragmentation ([1]; attached CL1-5, rCCN2 0, 20, 100, 200 ng/mL) is reported as “no obvious difference”, the DNA fragmentation ([1]; suspended CL1-5, rCCN2 with higher concentration) is reported as “increased” and the “rCCN2 induced DNA fragmentation” value [2] is reported as “decreased”. For the same molecule, the “celltracker signals in lungs” value [3] was “much weaker”, the “number of metastatic lung nodules” value [3] was “significantly reduced” and the “expression of EGFR” value [4] was “inhibit the expression of EGFR more significantly”. The DAPK expression (DAPK; CL1-5, A549 and CL1-0/siCCN2, increasing time 0 minutes to 12 hours, FIG. 6B) was “promote DAPK expression”, the DAPK expression (DAPK; CL1-5, increasing dose (0 μm, 1μg, 3 μg), FIG. 6C) was “promote DAPK expression” and the “formation of EGFR/c-Cbl complex” value (EGFR/c-Cbl complex) was “gradually increase the formation of EGFR/c-Cbl complex”. For the same molecule, the “autophosphorylation of c-Src Y416” value (c-Src) was “gradually inhibit the autophosphorylation of c-Src^Y416”, the “expression of EGFR” value (EGFR; attached PC9/IR) was “suppressed more significantly” and the “expression of EGFR” value (EGFR; attached PC9/WT) was “suppressed more significantly”.
